Assays:
Test in all cases: purified protein
purified protein [1] = substrate: O=C(O)[C@@H](O)[C@H](O)[C@@H](O)[C@@H](O)CO; conditions: 0.5 mM NAD+, 50 mM phosphate pH 7.5, 30 °C
purified protein [2] = substrate: O=C(O)[C@@H](O)[C@H](O)[C@H](O)[C@@H](O)CO; conditions: 0.5 mM NAD+, 50 mM phosphate pH 7.5, 30 °C
purified protein [3] = substrate: C[C@H](O)[C@H]1OC(=O)[C@@H](O)[C@@H]1O; conditions: 2.5 mM MOPS pH 7.1, 0.2 M NaCl, 1% DMSO, 30 °C
purified protein [4] = substrate: C[C@H]1C[C@@H](O)[C@H](O)C(=O)O1; conditions: 2.5 mM MOPS pH 7.1, 0.2 M NaCl, 1% DMSO, 30 °C
purified protein [5] = substrate: O=C1O[C@@H](CO)[C@@H](O)[C@@H]1O; conditions: 2.5 mM MOPS pH 7.1, 0.2 M NaCl, 1% DMSO, 30 °C
purified protein [6] = substrate: O=C1O[C@@H](CO)[C@H](O)[C@@H](O)[C@@H]1O; conditions: 2.5 mM MOPS pH 7.1, 0.2 M NaCl, 1% DMSO, 30 °C
purified protein [7] = substrate: O=C1O[C@H](CO)[C@@H](O)[C@@H]1O; conditions: 2.5 mM MOPS pH 7.1, 0.2 M NaCl, 1% DMSO, 30 °C
purified protein [8] = substrate: O=C1O[C@H]([C@@H](O)CO)[C@@H](O)[C@@H]1O; conditions: 2.5 mM MOPS pH 7.1, 0.2 M NaCl, 1% DMSO, 30 °C
purified protein [9] = substrate: NC(=O)c1ccc[n+]([C@@H]2O[C@H](COP(=O)(O)OP(=O)(O)OC[C@H]3O[C@@H](n4cnc5c(N)ncnc54)[C@H](O)[C@@H]3O)[C@@H](O)[C@H]2O)c1; conditions: with L-galactose, 50 mM BICINE pH 8.0, 30 °C, varied: cofactor

B1: Bvu0222 (Phocaeicola vulgatus ATCC 8482) (protein)
chain: MKAIQITAPSEMKVVDIEKPVLEPGEVLVKIKYVGFCGSDLNTFLGRNPMVKLPVIPGHEVGAVIEAVGKDVPDSLKPGMSVTVNPYTNCGKCASCRNGRVNACEHNETLGVQRNGAMCEYIALPWSKIIPAHRIPPRDCALIEPMSVGFHAVSRAQVTDIDIVMVIGCGMIGMGAIVRSALRGATVIAVDLDDEKLELAKRIGAHHTINSMTENVHECLTKITEGLGPDVVIEAVGSPATYVMAVNEVGFTGRVVCIGYAKSEVSFQTKYFVQKELDIRGSRNALPTDFRAVIRYMEQGTCPKNELISKVVKPEAAIQAMKEWAAAPGKVFRILVEFD
Km (purified protein [1]): 510 ± 70 µM
kcat (purified protein [1]): 0.2 ± 0.1 s⁻¹
kcat/Km (purified protein [1]): 390 ± 60 M⁻¹ s⁻¹
Km (purified protein [2]): 36 ± 3 µM
kcat (purified protein [2]): 0.6 ± 0.1 s⁻¹
kcat/Km (purified protein [2]): 17000 ± 1000 M⁻¹ s⁻¹

B2: Bvu0220 (Phocaeicola vulgatus ATCC 8482) (protein)
chain: MMDFNIIDAHSHLWLRQDTEVNGLPIRTLTNGRSLFMGEERQMVPPFMIDGRNSAEVFLSNMDYAQVSAAVVTQEFIDGIQNEYLAKVSHKYPDRFFVCGMCEFRKPGYLQQAKELISSGFKAIKIPAHRLFLKEGRVMLNSDEMMEMFHYMQEKDIILSIDLADGDTQVQEMKEIIQEYPQLRIAIGHFGMVTTPHWQEQIKLARHKNVMIESGGITWLFNSEFYPFHGAVKAIKEAADLVGMDKLMWGSDYPRTITAITYKMSYDFILKTTEMTQEEKALFLGKNAERFYGFKNLISLPYIKNMSE
Km (purified protein [3]): 1320 ± 210 µM
kcat (purified protein [3]): 23 ± 2 s⁻¹
kcat/Km (purified protein [3]): 18000 ± 2000 M⁻¹ s⁻¹
Km (purified protein [4]): 32 ± 4 µM
kcat (purified protein [4]): 23 ± 1 s⁻¹
kcat/Km (purified protein [4]): 720000 ± 80000 M⁻¹ s⁻¹
Km (purified protein [5]): 5500 ± 550 µM
kcat (purified protein [5]): 5.3 ± 0.4 s⁻¹
kcat/Km (purified protein [5]): 930 ± 40 M⁻¹ s⁻¹
Km (purified protein [6]): 500 ± 40 µM
kcat (purified protein [6]): 38 ± 1 s⁻¹
kcat/Km (purified protein [6]): 80000 ± 5000 M⁻¹ s⁻¹
Km (purified protein [7]): 1700 ± 140 µM
kcat (purified protein [7]): 1 ± 0.1 s⁻¹
kcat/Km (purified protein [7]): 500 ± 30 M⁻¹ s⁻¹
Km (purified protein [8]): 1950 ± 310 µM
kcat (purified protein [8]): 34 ± 3 s⁻¹
kcat/Km (purified protein [8]): 18000 ± 2000 M⁻¹ s⁻¹

B3: Bvu0219 (Phocaeicola vulgatus ATCC 8482) (protein)
chain: MNYNEIGKTGMRVSNLSFGASSLGGVFHDIREAEGIKAVYTAVENGMNFIDVSPYYGHYKAETVLGKALKEIPRDKYYLSTKVGRYGKDGVNTWDYSGKRATESVYESLDRLHIEYIDLINVHDVEFSDMNQVVNETLPALVELKKKGIVGHVGITDLQLENLKWIIDHSEPGTVESVLNFCHYCLNDEKLTDYLDYFESKNIGIINASPLSMGLLSQRGVPAWHPAPQSLVEACRKAVQHCLSKNYPIEKLAIQYSVSNPRIATTLFSSANPDNVLKNITYAEEPIDWNLVKEVQEIIGKQMRISWANS
Km (purified protein [9]): 3000 ± 200 µM
kcat (purified protein [9]): 25 ± 1 s⁻¹
kcat/Km (purified protein [9]): 9000 ± 100 M⁻¹ s⁻¹

— publication PMC4108180
